Laboratory results taken from patent WO2022154037A1 (dated 2022).

Tests used:
[1] = biological target: T1, antigen peptide in which Ser510 is not phosphorylated (non-phosphorylated LRH1 peptide) (human); assay: ELISA, concentration series of peptide, purified antibody
T1 construct: also called non-pS510-LRH1 peptide; peptide containing a non-phosphorylated product of serine at position 510
T1 peptide: RLPEIRAISMQAEE

[2] = biological target: T2, mutant LRH1 (LRH1S510E; constitutive phosphorylated product) (human, UniProt O00482 1-541); assay: immunohistochemical staining of HEK293T cell block sections expressing LRH1S510E
T2 construct: It is a nuclear protein, not on the cell surface; also called HEK293T:LRH1S510E
T2 sequence (O00482 whole entry S510E): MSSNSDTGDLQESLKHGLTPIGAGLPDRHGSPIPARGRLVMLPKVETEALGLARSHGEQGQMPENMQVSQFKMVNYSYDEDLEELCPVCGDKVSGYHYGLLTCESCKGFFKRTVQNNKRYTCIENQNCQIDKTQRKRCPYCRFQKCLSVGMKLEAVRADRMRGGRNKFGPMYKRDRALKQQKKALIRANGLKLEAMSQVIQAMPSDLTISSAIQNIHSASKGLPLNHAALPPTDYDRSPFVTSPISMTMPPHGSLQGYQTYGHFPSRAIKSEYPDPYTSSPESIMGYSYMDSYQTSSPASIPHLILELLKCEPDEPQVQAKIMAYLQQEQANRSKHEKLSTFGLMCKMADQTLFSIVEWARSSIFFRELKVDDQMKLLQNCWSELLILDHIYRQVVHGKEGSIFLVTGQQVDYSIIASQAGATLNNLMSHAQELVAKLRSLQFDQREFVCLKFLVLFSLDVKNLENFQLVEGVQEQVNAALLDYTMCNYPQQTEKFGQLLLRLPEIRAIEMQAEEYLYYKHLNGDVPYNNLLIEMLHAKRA

binding result [1]: no binding
binding result [2]: binds
B1: anti-pSer510-LRH1 monoclonal antibody clone 55 (FMU-P2-C2) (antibody, V domains shown)
VH: EVKLVESGGGLVQPGGSLRLSCAASGFTFADFYMSWIRQSPGKAPEWLSFIRNKAKSYTTEYNPSVKGRFTISRDDTQNVLYLQMNTLRAEDTAIYYCAKHERGGAGDYWGQGVMVTVSL
VL: DIQMTQSPASLSASPEEIVTITCQASQDIGNWLTWYQQKPGKSPQLLIYSATSLADGIPSRFSGSRSGTQYSLKISRLQVEDTGIYYCLQRYSNPLTFGSGTKLEIK
notes: Rat monoclonal antibody from a hybridoma (Wistar rat iliac lymph node cells fused with mouse myeloma SP2), detected with anti-rat IgG secondary antibodies; also called rat anti-pSer510-LRH1 monoclonal antibody clone 55; purified anti-pSer510-LRH1 monoclonal antibody
